The values that follow come from PMC8927860, “Completing the family of human Eps15 homology domains: Solution structure of the internal Eps15 homology domain of γ‐synergin” (Protein Science : A Publication of the Protein Society, 2022).

Entries after “also recorded” stand apart in the source; their conditions may differ. Ends that are not written are not given here.

Data set [1] deals with T1, EH domain of γ‐synergin (EHγ, residues 279–388) (Homo sapiens, UniProt Q9UMZ2).
T1 construct: His-tag with TEV cleavage site (N, cleaved yes); made in house; host or cells: Escherichia coli BL21(DE3)
T1 sequence (Q9UMZ2 279-388): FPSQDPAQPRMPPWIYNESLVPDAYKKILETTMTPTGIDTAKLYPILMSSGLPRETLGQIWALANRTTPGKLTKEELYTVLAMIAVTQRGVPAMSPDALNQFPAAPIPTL
The data set can be described thus: Isothermal titration calorimetry of SCAMP1 fragments and peptides with EHγ. Format: binding. The note with it: ITC; for ∆H / ∆S / N (stoichiometry) / KD: 20 mM Tris, 100 mM NaCl, 2 mM CaCl2 pH 7.5, 20°C, one site binding model; for ∆H / ∆S / KD: n.b. = no binding; for N (stoichiometry) / KD: VP-ITC, 50–200 μM EHγ in cell, ligand 700–2000 μM. On the procedure:
ITC measurements were performed on a VP‐ITC instruments (GE Healthcare, Chalfont St. Giles, UK). The calorimetric cell (with a total cell volume of 1,400 μl) contained 50–200 μM EHγ in 20 mM Tris, 100 mM NaCl, 2 mM CaCl2 pH 7.5. SCAMP1 fragments and peptides A, B, C at 700–2000 μM were titrated into the cell at 20°C. The heat generated after each ligand injection was obtained by integration of the calorimetric signal. Resulting binding isotherms were analyzed according to an one site binding model using the Origin software (OriginLab Corp., Northampton, MA, USA).
A general note: In ITC the heat of successive injections is recorded.

In data set [2] the target is T1, EH domain of γ‐synergin (EHγ, residues 279–388). The data set can be described thus: Analytical size exclusion chromatography of EHγ–SCAMP1″ complex. The following applies: complex compared with isolated EHγ and SCAMP1″; 100 μM EHγ and/or 100 μM SCAMP 1–52, Superdex 200 5/150 GL, 20 mM Tris pH 7.5, 100 mM NaCl, 2 mM CaCl2, 4°C. Format: binding. On the procedure:
The quality and oligomeric state of the EHγ construct was assessed on an analytical gel filtration column (Superdex 75 5/150 GL, GE Healthcare). To guarantee reproducible and reliable gel filtration runs, an ÄKTAmicro™ (GE Healthcare) was coupled to an auto sampler, which automatically injected with high‐precision 25 μl of protein sample.[36] Analytical gel filtration runs were performed in duplicates in the cold room at a flow rate of 0.2 ml/min in gel filtration buffer (20 mM Tris pH 7.5, 100 mM NaCl, 2 mM CaCl2). The used EHγ construct was injected spanning a concentration range of 10–1,000 μM. The column has been calibrated with protein standards ranging from 6.5 to 75 kDa. Interactions between EHγ and the SCAMP 1–52 fragment were also probed using this analytical gel filtration setup; the proteins alone or the potential complex (at concentrations of 100 μM EHγ and/or 100 μM SCAMP 1–52) were applied to a Superdex™ 200 5/150 GL analytical gel filtration column and analyzed. Analytical gel filtration runs were performed at 4°C at a flow rate of 0.2 ml/min in the gel filtration buffer.
A general note: In gel filtration, larger molecules generally elute earlier.

Data set [3] addresses T2, EH domain of human γ-synergin, longest construct (residues 279–388) (human, UniProt Q9UMZ2 279-388).
T2 chain: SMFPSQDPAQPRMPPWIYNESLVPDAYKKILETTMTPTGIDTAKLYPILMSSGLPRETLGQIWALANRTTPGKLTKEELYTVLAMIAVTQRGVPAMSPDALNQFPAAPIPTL
The data set can be described thus: ITC.

For data set [4], the target named is T3, EH domain of human γ-synergin, longest construct (residues 279–388) (human, UniProt Q9UMZ2 279-388).
T3 construct: two additional residues (Serine-Methionine) left at the N-terminus by the vector pNIC28-Bsa4 after TEV cleavage of the tag; γ-synergin, human, residues 279-388 (EH domain with N- and C-terminal structured extensions); also called EHγ; EHγ domain; source: E. coli BL21(DE3), purified (Ni-IMAC, TEV cleavage, SEC on Superdex 75); 15N-labelled in M9 medium for NMR; not shown: His tag, N-terminal, …
T3 sequence: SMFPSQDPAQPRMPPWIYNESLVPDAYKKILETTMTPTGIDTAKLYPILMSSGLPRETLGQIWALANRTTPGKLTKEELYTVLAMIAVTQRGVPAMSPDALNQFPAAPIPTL
The data set can be described thus: NMR titration; unlabelled peptide added stepwise to 15N-labelled EHγ, 1H-15N HSQC, up to n = 2 (Pep A, C) and n = 3.2 (Pep B); 20 mM Tris pH 7.5, 100 mM NaCl, 2 mM CaCl2, 10% D2O, 298 K; joint fit of I324, L325, W339 to a one site binding model. The note with it: both partners purified.

Data set [5] concerns the target T3, EH domain of human γ-synergin, longest …. The data set can be described thus: ITC; EHγ 50–200 μM in the cell, SCAMP1 fragments and peptides A, B, C at 700–2000 μM titrated in; 20 mM Tris, 100 mM NaCl, 2 mM CaCl2 pH 7.5, 20°C; one site binding model. The following applies: both partners purified.

As to ADPDLNNPFKDPSVTY-NH2 [Peptide B], in data set [1], the “∆H” value is given as -12.0 ± 1.5 kcal/mol, the “∆S” value is given as -23.3 cal/mol/deg and the “N (stoichiometry)” value is 1.1 ± 0.2.
GLDEYNPFSDSRT-NH2 [Peptide C]: in data set [1], the “∆H” value is given as -22.9 ± 2.7 kcal/mol, the “∆S” value is -59.8 cal/mol/deg and the “N (stoichiometry)” value turned out to be 1.0 ± 0.1.
For “SCAMP1″: NPF repeat rich fragment of SCAMP1 possessing three NPF-motifs (residues 1–52) (MSDFDSNPFADPDLNNPFKDPSVTQVTRNVPPGLDEYNPFSDSRTPPPGGVK; UniProt O15126 1-52, looked up, fragment)”, the “N (stoichiometry)” value in data set [1] was found to be 0.33 ± 0.01. The “enthalpic/entropic contribution to binding (in words)” value in data set [1] (SCAMP1″ (three NPF-motifs) compared to sum of / individual peptides A, B, C) is listed as “no enthalpic gain; also recorded: largely reduced entropic penalty”. For the same molecule, the “complex formation by SEC (elution)” value in data set [2] is “lower retention volume”.
Take SDFDSNPFADPDLNY-NH2 [Peptide A]: in data set [1], the “∆H” value is reported as -21.1 ± 2.4 kcal/mol, the “∆S” value was -55.2 cal/mol/deg and the “N (stoichiometry)” value is recorded as 1.2 ± 0.1.
Broadly, the Kd is the free concentration of one partner at which half of the binding sites on the other are occupied at equilibrium, for simple one-to-one binding. Consider ADPDLNNPFKDPSVTY-NH2 [peptide B, SCAMP1 derived peptide with a single NPF-repeat], for which the Kd was found to be 140 µM in data set [3] and 120 ± 30 µM in data set [4].
GLDEYNPFSDSRT-NH2 [peptide C, SCAMP1 derived peptide with a single NPF-repeat]: the Kd was 90 µM in data set [3] and 30 ± 20 µM in data set [4].

B1: SCAMP1′: coiled coil domain of N-terminal SCAMP1, devoid of NPF-repeats (residues 65–130) (protein, UniProt O15126 65-130, looked up, fragment)
chain: KPTEEHPAYTQIAKEHALAQAELLKRQEELERKAAELDRREREMQNLSQHGRKNNWPPLPSNFPVG
One may read the KD as the equilibrium constant for the complex coming apart. Consider B1, for which, in data set [1], the “N (stoichiometry)” value is “n.b” and the KD result is listed as “n.b”.

B2: SCAMP1 (protein)
chain: MSDFDSNPFADPDLNNPFKDPSVTQVTRNVPPGLDEYNPFSDSRTPPPGGVKMPNVPNTQPAIMKPTEEHPAYTQIAKEHALAQAELLKRQEELERKAAELDRREREMQNLSQHGRKNNWPPLPSNFPVG
modifications: N-terminal cytosolic SCAMP1 construct, residues 1-130 (NPF repeats plus coiled coil, no TM helices); Ser-Met left at the N-terminus after TEV cleavage is omitted; human inferred from the hORFeome source
As to B2, the Kd in data set [3] was 9 µM.

B3: SCAMP1: N-terminal SCAMP1 construct devoid of transmembrane helices, comprising NPF repeat rich motifs and coiled coil (residues 1–130) (protein, UniProt O15126 1-130, looked up, fragment)
chain: MSDFDSNPFADPDLNNPFKDPSVTQVTRNVPPGLDEYNPFSDSRTPPPGGVKMPNVPNTQPAIMKPTEEHPAYTQIAKEHALAQAELLKRQEELERKAAELDRREREMQNLSQHGRKNNWPPLPSNFPVG
Consider B3, for which, in data set [1], the “∆H” value is -7.5 ± 1.1 kcal/mol, the “∆S” value was -2.3 cal/mol/deg and the “N (stoichiometry)” value is listed as 0.38 ± 0.04. In addition, in data set [1] (listed as SCAMP1’), the “∆H” value is “n.b”, the “∆S” value is given as “n.b”, the “N (stoichiometry)” value was “n.b” and the KD entry was “n.b”. In data set [1] (listed as SCAMP1’’), the “∆H” value is recorded as -41.3 ± 1.3 kcal/mol, the “∆S” value was -118.0 cal/mol/deg, the “N (stoichiometry)” value came out at 0.33 ± 0.01 and the KD worked out at 9.9 ± 0.4 µM.
Consider SDFDSNPFADPDLNY-NH2 [peptide A, SCAMP1 derived peptide with a single NPF-repeat], for which the Kd was found to be 250 µM in data set [3] and 110 ± 10 µM in data set [4].

B4: SCAMP1″, NPF repeat rich N-terminal fragment of secretory carrier membrane protein 1 (residues 1–52) (domain or fragment, human (hORFeome collection))
chain: SMMSDFDSNPFADPDLNNPFKDPSVTQVTRNVPPGLDEYNPFSDSRTPPPGGVK
notes: two additional residues (Serine-Methionine) left by the vector pNIC28-Bsa4 after TEV cleavage (same cloning procedure as for EHγ); secretory carrier membrane protein 1 (SCAMP1), residues 1-52, with three NPF repeats; gene from the hORFeome collection; also called SCAMP 1–52 fragment; NPF-repeats from the N-terminal domain of SCAMP1; source: E. coli BL21(DE3), purified (Ni-IMAC, TEV cleavage, …)
As for B4, the Kd in data set [3] was 9.9 µM. For the same molecule, the binding result in data set [5] is reported as “binds”.
